Assay results taken from the Human Domainome abundance scans (Beltran et al. 2025).
± gives the uncertainty stated by the source.

B1: Pyruvate dehydrogenase protein X component, mitochondrial, residues 181 to 227; numbered along this chain, O00330 (parent)
chain: RFRLSPAARNILEKHSLDASQGTATGPRGIFTKEDALKLVQLKQTGK

Variants of: B1
Assay: abundance fitness (aPCA) (normalised: wild type 0, dead -1); higher = more abundant; growth selection in yeast, the domain comes from the species named
Conditions: Homo sapiens

Variant	abundance fitness
RFRLEPAARNILEKHSLDASQGTATGPRGIFTKEDALKLVQLKQTGK	0.081 ± 0.044
RFRLAPAARNILEKHSLDASQGTATGPRGIFTKEDALKLVQLKQTGK	-0.257 ± 0.049
RFRLDPAARNILEKHSLDASQGTATGPRGIFTKEDALKLVQLKQTGK	-0.098 ± 0.096
RFRLCPAARNILEKHSLDASQGTATGPRGIFTKEDALKLVQLKQTGK	-0.608 ± 0.11
GFRLSPAARNILEKHSLDASQGTATGPRGIFTKEDALKLVQLKQTGK	0.171 ± 0.063
WFRLSPAARNILEKHSLDASQGTATGPRGIFTKEDALKLVQLKQTGK	-0.651 ± 0.16
EFRLSPAARNILEKHSLDASQGTATGPRGIFTKEDALKLVQLKQTGK	-0.206 ± 0.14
AFRLSPAARNILEKHSLDASQGTATGPRGIFTKEDALKLVQLKQTGK	0.02 ± 0.23
SFRLSPAARNILEKHSLDASQGTATGPRGIFTKEDALKLVQLKQTGK	0.145 ± 0.095
IFRLSPAARNILEKHSLDASQGTATGPRGIFTKEDALKLVQLKQTGK	-0.317 ± 0.36
CFRLSPAARNILEKHSLDASQGTATGPRGIFTKEDALKLVQLKQTGK	-0.516 ± 0.27
PFRLSPAARNILEKHSLDASQGTATGPRGIFTKEDALKLVQLKQTGK	-1.1 ± 0.25
VFRLSPAARNILEKHSLDASQGTATGPRGIFTKEDALKLVQLKQTGK	-0.685 ± 0.054
TFRLSPAARNILEKHSLDASQGTATGPRGIFTKEDALKLVQLKQTGK	-1.29 ± 0.45
KFRLSPAARNILEKHSLDASQGTATGPRGIFTKEDALKLVQLKQTGK	-0.289 ± 0.17
QFRLSPAARNILEKHSLDASQGTATGPRGIFTKEDALKLVQLKQTGK	-0.362 ± 0.32
NFRLSPAARNILEKHSLDASQGTATGPRGIFTKEDALKLVQLKQTGK	-0.353 ± 0.29
MFRLSPAARNILEKHSLDASQGTATGPRGIFTKEDALKLVQLKQTGK	-0.489 ± 0.17
RFCLSPAARNILEKHSLDASQGTATGPRGIFTKEDALKLVQLKQTGK	-0.064 ± 0.069
RFGLSPAARNILEKHSLDASQGTATGPRGIFTKEDALKLVQLKQTGK	-0.336 ± 0.047
RFALSPAARNILEKHSLDASQGTATGPRGIFTKEDALKLVQLKQTGK	-0.504 ± 0.061
RFHLSPAARNILEKHSLDASQGTATGPRGIFTKEDALKLVQLKQTGK	0.04 ± 0.11
RFDLSPAARNILEKHSLDASQGTATGPRGIFTKEDALKLVQLKQTGK	-0.594 ± 0.13
RFWLSPAARNILEKHSLDASQGTATGPRGIFTKEDALKLVQLKQTGK	-0.119 ± 0.046
RFLLSPAARNILEKHSLDASQGTATGPRGIFTKEDALKLVQLKQTGK	-0.393 ± 0.05
RFPLSPAARNILEKHSLDASQGTATGPRGIFTKEDALKLVQLKQTGK	-0.188 ± 0.073

Variant	abundance fitness
RFVLSPAARNILEKHSLDASQGTATGPRGIFTKEDALKLVQLKQTGK	0.04 ± 0.045
RFNLSPAARNILEKHSLDASQGTATGPRGIFTKEDALKLVQLKQTGK	0.31 ± 0.1
RFKLSPAARNILEKHSLDASQGTATGPRGIFTKEDALKLVQLKQTGK	-0.16 ± 0.078
RFELSPAARNILEKHSLDASQGTATGPRGIFTKEDALKLVQLKQTGK	-0.57 ± 0.069
RFQLSPAARNILEKHSLDASQGTATGPRGIFTKEDALKLVQLKQTGK	-0.374 ± 0.084
RFFLSPAARNILEKHSLDASQGTATGPRGIFTKEDALKLVQLKQTGK	0.144 ± 0.06
RFSLSPAARNILEKHSLDASQGTATGPRGIFTKEDALKLVQLKQTGK	-0.14 ± 0.055
RFILSPAARNILEKHSLDASQGTATGPRGIFTKEDALKLVQLKQTGK	0.367 ± 0.097
RFMLSPAARNILEKHSLDASQGTATGPRGIFTKEDALKLVQLKQTGK	-0.091 ± 0.077
RFYLSPAARNILEKHSLDASQGTATGPRGIFTKEDALKLVQLKQTGK	0.109 ± 0.077
RFRSSPAARNILEKHSLDASQGTATGPRGIFTKEDALKLVQLKQTGK	-0.167 ± 0.062
RFRESPAARNILEKHSLDASQGTATGPRGIFTKEDALKLVQLKQTGK	-0.104 ± 0.046
RFRNSPAARNILEKHSLDASQGTATGPRGIFTKEDALKLVQLKQTGK	0.049 ± 0.092
RFRDSPAARNILEKHSLDASQGTATGPRGIFTKEDALKLVQLKQTGK	0.005 ± 0.097
RFRISPAARNILEKHSLDASQGTATGPRGIFTKEDALKLVQLKQTGK	0.245 ± 0.074
RFRGSPAARNILEKHSLDASQGTATGPRGIFTKEDALKLVQLKQTGK	-0.241 ± 0.044
RFRPSPAARNILEKHSLDASQGTATGPRGIFTKEDALKLVQLKQTGK	-0.333 ± 0.051
RFRASPAARNILEKHSLDASQGTATGPRGIFTKEDALKLVQLKQTGK	-0.37 ± 0.063
RFRYSPAARNILEKHSLDASQGTATGPRGIFTKEDALKLVQLKQTGK	-0.131 ± 0.077
RFRQSPAARNILEKHSLDASQGTATGPRGIFTKEDALKLVQLKQTGK	-0.357 ± 0.083
RFRFSPAARNILEKHSLDASQGTATGPRGIFTKEDALKLVQLKQTGK	-0.284 ± 0.14
RFRCSPAARNILEKHSLDASQGTATGPRGIFTKEDALKLVQLKQTGK	-0.086 ± 0.064
RFRMSPAARNILEKHSLDASQGTATGPRGIFTKEDALKLVQLKQTGK	-0.008 ± 0.062
RFRKSPAARNILEKHSLDASQGTATGPRGIFTKEDALKLVQLKQTGK	-0.09 ± 0.082
RFRTSPAARNILEKHSLDASQGTATGPRGIFTKEDALKLVQLKQTGK	-0.204 ± 0.059
